Assay results taken from the supplement of paper PMC10126150.
± gives the standard deviation of the averaged measurements.

System: ATP
Assay: switch fluorescence ratio, 500 uM ATP over buffer (Cy3 cluster intensity, sum of 5 cycles each) (fold (ratio)); higher = stronger signal-on switching upon ATP binding; sequences stand for … in TCGTCGGCAGCGTCAGATGTGTATAAGAGACAGTTTTTTTTTTTTTTTTTTTTTTTTT…TC
Conditions: aptamer strand: ATP DNA aptamer (quencher-CACCTGGGGGAGTATTGCGGAGGAAGG + anchor), 100 nM annealed; ATP concentration: 500 uM
Outline: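 Exposure to 500 uM ATP lasted 15 min at 22 °C before imaging, and a selection-buffer image was taken beforehand, for Cy3-labelled switching-strand clusters on a modified Illumina MiSeq flow-cell annealed to 100 nM quencher-labelled ATP aptamer. Five buffer/ATP cycles were run with NaOH stripping and re-annealing between them. The fluorescence ratio per cluster is summed target-cycle over summed buffer-cycle Cy3 intensity, averaged per switch-domain sequence. Clusters outside 100-1000 RFU were excluded.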

With AATTACCAAA as the sequence, how does the switch fluorescence ratio read?
The switch fluorescence ratio was 1.01 ± 0.072.

How did the switch fluorescence ratio turn out when AATTACCGGT was run?
The switch fluorescence ratio was 0.979 ± 0.045.

AATTAGAAGC was tested. Which switch fluorescence ratio did it give?
Its switch fluorescence ratio is 0.9962 ± 0.0075.

How did the switch fluorescence ratio turn out when AATTAGAGGG was run?
The switch fluorescence ratio was 0.984 ± 0.046.

Which switch fluorescence ratio does the source give for AATTAGTGTT here?
Its switch fluorescence ratio is 0.99 ± 0.02.

How did the switch fluorescence ratio turn out when AATTAGTTGG was run?
Its switch fluorescence ratio is 0.9923 ± 0.0071.

AATTAGTTGT was tested. Which switch fluorescence ratio did it give?
Its switch fluorescence ratio is 0.9918 ± 0.0084.

AATTATAAGA was tested. Which switch fluorescence ratio did it give?
The switch fluorescence ratio was 0.996 ± 0.027.

How did the switch fluorescence ratio turn out when AATTATCTCG was run?
The switch fluorescence ratio was 1.01 ± 0.018.

With AATTATTGAG as the sequence, how does the switch fluorescence ratio read?
Its switch fluorescence ratio is 1.02 ± 0.038.

How did the switch fluorescence ratio turn out when AATTCAGGCA was run?
Its switch fluorescence ratio is 0.98668 ± 0.00049.

With AATTCAGTGT as the sequence, how does the switch fluorescence ratio read?
The switch fluorescence ratio was 1.01 ± 0.025.

For AATTCATGTA, which switch fluorescence ratio is on record?
Its switch fluorescence ratio is 0.9886 ± 0.0064.

For AATTCCGGTC, which switch fluorescence ratio is on record?
The switch fluorescence ratio was 1.093 ± 0.0066.

With AATTCCTATG as the sequence, how does the switch fluorescence ratio read?
Its switch fluorescence ratio is 1.04 ± 0.05.

How did the switch fluorescence ratio turn out when AATTCTAAAC was run?
The switch fluorescence ratio was 0.9881 ± 0.0038.

AATTCTGAGG was tested. Which switch fluorescence ratio did it give?
Its switch fluorescence ratio is 0.977 ± 0.025.

For AATTGAAGAT, which switch fluorescence ratio is on record?
The switch fluorescence ratio was 1.03 ± 0.039.

Which switch fluorescence ratio does the source give for AATTGACTGT here?
The switch fluorescence ratio was 1.07 ± 0.025.

For AATTGAGGCG, which switch fluorescence ratio is on record?
The switch fluorescence ratio was 1.02 ± 0.089.

How did the switch fluorescence ratio turn out when AATTGCACCT was run?
Its switch fluorescence ratio is 1.22 ± 0.05.

AATTGCGTGG was tested. Which switch fluorescence ratio did it give?
The switch fluorescence ratio was 0.988 ± 0.017.

With AATTGCTTTC as the sequence, how does the switch fluorescence ratio read?
Its switch fluorescence ratio is 1.06 ± 0.013.

With AATTGGGGCG as the sequence, how does the switch fluorescence ratio read?
The switch fluorescence ratio was 0.969 ± 0.025.

How did the switch fluorescence ratio turn out when AATTGGGGGC was run?
The switch fluorescence ratio was 0.98 ± 0.022.

For AATTGGGGTG, which switch fluorescence ratio is on record?
Its switch fluorescence ratio is 1.06 ± 0.011.

For AATTGGTAGC, which switch fluorescence ratio is on record?
Its switch fluorescence ratio is 0.966 ± 0.015.

For AATTGGTAGG, which switch fluorescence ratio is on record?
The switch fluorescence ratio was 1 ± 0.072.

How did the switch fluorescence ratio turn out when AATTGGTGAA was run?
The switch fluorescence ratio was 1.01 ± 0.014.

With AATTGTACGG as the sequence, how does the switch fluorescence ratio read?
The switch fluorescence ratio was 1.04 ± 0.013.

AATTGTGGCT was tested. Which switch fluorescence ratio did it give?
The switch fluorescence ratio was 1 ± 0.025.

For AATTGTGGGG, which switch fluorescence ratio is on record?
Its switch fluorescence ratio is 0.983 ± 0.057.

For AATTGTGTAT, which switch fluorescence ratio is on record?
The switch fluorescence ratio was 0.973 ± 0.026.

How did the switch fluorescence ratio turn out when AATTGTTGGC was run?
Its switch fluorescence ratio is 0.999 ± 0.035.

How did the switch fluorescence ratio turn out when AATTTACAGC was run?
Its switch fluorescence ratio is 1.03 ± 0.042.

Which switch fluorescence ratio does the source give for AATTTACGAA here?
Its switch fluorescence ratio is 1.01 ± 0.019.

Which switch fluorescence ratio does the source give for AATTTACGGA here?
The switch fluorescence ratio was 1.06 ± 0.037.

How did the switch fluorescence ratio turn out when AATTTAGCCG was run?
The switch fluorescence ratio was 0.977 ± 0.077.

For AATTTAGGGG, which switch fluorescence ratio is on record?
The switch fluorescence ratio was 0.989 ± 0.03.

With AATTTATCAG as the sequence, how does the switch fluorescence ratio read?
The switch fluorescence ratio was 1.03 ± 0.039.

For AATTTATTGT, which switch fluorescence ratio is on record?
Its switch fluorescence ratio is 1.003 ± 0.0013.

For AATTTCAAGG, which switch fluorescence ratio is on record?
The switch fluorescence ratio was 1 ± 0.048.

With AATTTCACCA as the sequence, how does the switch fluorescence ratio read?
The switch fluorescence ratio was 0.999 ± 0.013.

Which switch fluorescence ratio does the source give for AATTTCGGAC here?
Its switch fluorescence ratio is 1.07 ± 0.071.

For AATTTCGGAG, which switch fluorescence ratio is on record?
Its switch fluorescence ratio is 1.02 ± 0.026.

AATTTGAGGG was tested. Which switch fluorescence ratio did it give?
The switch fluorescence ratio was 0.979 ± 0.016.

With AATTTGATC as the sequence, how does the switch fluorescence ratio read?
Its switch fluorescence ratio is 1.03 ± 0.021.

For AATTTGCATG, which switch fluorescence ratio is on record?
Its switch fluorescence ratio is 0.978 ± 0.013.

With AATTTGCGGG as the sequence, how does the switch fluorescence ratio read?
The switch fluorescence ratio was 0.98 ± 0.024.

How did the switch fluorescence ratio turn out when AATTTGCTTT was run?
The switch fluorescence ratio was 0.986 ± 0.036.

For AATTTGGCAT, which switch fluorescence ratio is on record?
The switch fluorescence ratio was 1.012 ± 0.0063.

For AATTTGGCCT, which switch fluorescence ratio is on record?
The switch fluorescence ratio was 1.05 ± 0.035.

For AATTTGGGGA, which switch fluorescence ratio is on record?
The switch fluorescence ratio was 0.968 ± 0.013.

For AATTTGTAGT, which switch fluorescence ratio is on record?
Its switch fluorescence ratio is 1.03 ± 0.025.

Which switch fluorescence ratio does the source give for AATTTGTGTG here?
The switch fluorescence ratio was 0.99 ± 0.034.

For AATTTGTTTT, which switch fluorescence ratio is on record?
Its switch fluorescence ratio is 1.02 ± 0.028.

AATTTTAGCC was tested. Which switch fluorescence ratio did it give?
The switch fluorescence ratio was 0.987 ± 0.011.

For AATTTTATTT, which switch fluorescence ratio is on record?
The switch fluorescence ratio was 1.03 ± 0.062.

With AATTTTGCTT as the sequence, how does the switch fluorescence ratio read?
Its switch fluorescence ratio is 1.01 ± 0.015.

With AATTTTGGCT as the sequence, how does the switch fluorescence ratio read?
The switch fluorescence ratio was 0.964 ± 0.03.

Which switch fluorescence ratio does the source give for AATTTTTTGG here?
The switch fluorescence ratio was 1 ± 0.046.

Which switch fluorescence ratio does the source give for ACAAAGGAGC here?
Its switch fluorescence ratio is 1 ± 0.022.

For ACAAAGTAAA, which switch fluorescence ratio is on record?
The switch fluorescence ratio was 1.01 ± 0.035.

ACAAATGGGA was tested. Which switch fluorescence ratio did it give?
Its switch fluorescence ratio is 1.02 ± 0.044.

Which switch fluorescence ratio does the source give for ACAACAGGGG here?
Its switch fluorescence ratio is 2.91 ± 0.65.

Which switch fluorescence ratio does the source give for ACAACCGTTT here?
Its switch fluorescence ratio is 1.02 ± 0.027.

ACAACTTTTT was tested. Which switch fluorescence ratio did it give?
Its switch fluorescence ratio is 1.02 ± 0.044.

For ACAAGAATTA, which switch fluorescence ratio is on record?
The switch fluorescence ratio was 1.01 ± 0.055.

With ACAAGGGCGG as the sequence, how does the switch fluorescence ratio read?
The switch fluorescence ratio was 1.01 ± 0.015.

With ACAAGTAATA as the sequence, how does the switch fluorescence ratio read?
The switch fluorescence ratio was 1.06 ± 0.057.

For ACAAGTATTA, which switch fluorescence ratio is on record?
Its switch fluorescence ratio is 1.017 ± 0.0051.

How did the switch fluorescence ratio turn out when ACAAGTGAGG was run?
Its switch fluorescence ratio is 1.02 ± 0.023.

For ACAAGTTTTG, which switch fluorescence ratio is on record?
The switch fluorescence ratio was 1.04 ± 0.0022.

Which switch fluorescence ratio does the source give for ACAATATTTT here?
Its switch fluorescence ratio is 1.02 ± 0.02.

How did the switch fluorescence ratio turn out when ACAATCTTTA was run?
Its switch fluorescence ratio is 0.994 ± 0.03.

With ACAATTGTCG as the sequence, how does the switch fluorescence ratio read?
The switch fluorescence ratio was 1.028 ± 0.01.

With ACACAACTGT as the sequence, how does the switch fluorescence ratio read?
The switch fluorescence ratio was 1.14 ± 0.077.

ACACAAGGCT was tested. Which switch fluorescence ratio did it give?
Its switch fluorescence ratio is 1.03 ± 0.037.

With ACACACTCAA as the sequence, how does the switch fluorescence ratio read?
The switch fluorescence ratio was 1.28 ± 0.029.

For ACACAGAGAG, which switch fluorescence ratio is on record?
The switch fluorescence ratio was 1.02 ± 0.033.

With ACACAGAGTT as the sequence, how does the switch fluorescence ratio read?
The switch fluorescence ratio was 1.03 ± 0.014.

With ACACAGGGGG as the sequence, how does the switch fluorescence ratio read?
Its switch fluorescence ratio is 1.0997 ± 0.00043.

ACACAGTATT was tested. Which switch fluorescence ratio did it give?
Its switch fluorescence ratio is 1.0263 ± 0.00076.

ACACATAGAC was tested. Which switch fluorescence ratio did it give?
The switch fluorescence ratio was 1.17 ± 0.051.

ACACATTTTT was tested. Which switch fluorescence ratio did it give?
Its switch fluorescence ratio is 1.011 ± 0.01.

How did the switch fluorescence ratio turn out when ACACCAGCTA was run?
The switch fluorescence ratio was 0.9876 ± 0.0061.

ACACCGGGTC was tested. Which switch fluorescence ratio did it give?
The switch fluorescence ratio was 1.21 ± 0.071.

Which switch fluorescence ratio does the source give for ACACGGGGAG here?
Its switch fluorescence ratio is 1.01 ± 0.044.

With ACACGGGGGT as the sequence, how does the switch fluorescence ratio read?
The switch fluorescence ratio was 1.01 ± 0.018.

Which switch fluorescence ratio does the source give for ACACGTAGTT here?
The switch fluorescence ratio was 0.984 ± 0.021.

How did the switch fluorescence ratio turn out when ACACTATCAC was run?
Its switch fluorescence ratio is 1.21 ± 0.049.

Which switch fluorescence ratio does the source give for ACACTTTTTT here?
The switch fluorescence ratio was 1 ± 0.055.

How did the switch fluorescence ratio turn out when ACAGAACAGT was run?
The switch fluorescence ratio was 1.03 ± 0.016.

For ACAGAAGGGG, which switch fluorescence ratio is on record?
The switch fluorescence ratio was 1.02 ± 0.012.

Which switch fluorescence ratio does the source give for ACAGACTGAT here?
The switch fluorescence ratio was 1.1 ± 0.076.

ACAGAGAAAT was tested. Which switch fluorescence ratio did it give?
The switch fluorescence ratio was 1.03 ± 0.036.

With ACAGAGGGTT as the sequence, how does the switch fluorescence ratio read?
Its switch fluorescence ratio is 1.03 ± 0.045.

How did the switch fluorescence ratio turn out when ACAGATTCTA was run?
The switch fluorescence ratio was 0.984 ± 0.05.

With ACAGCATGCC as the sequence, how does the switch fluorescence ratio read?
Its switch fluorescence ratio is 0.997 ± 0.013.

For ACAGCATGTA, which switch fluorescence ratio is on record?
Its switch fluorescence ratio is 0.9589 ± 0.0093.
